Measurements taken from patent publication US20250327097A1, “ORGANISMS PRODUCING LESS CROTONIC ACID” (Global Bioenergies, priority 2021, published 2025).
Where a chain is given by its changes, count along the chain named. Names may count otherwise.

B1: I283T-P284D-N285M-E286A-N287T-S322T-N388M-K394R-C430A-L432F-L434W-S436N-G462P-A463P (protein)
chain: MFLKSLREQINLLKRQGDLRIINRPVDSYLEAAAIIRRSTETKAPVPLMTNIKGYPGCSIVGGLAALSSNPEYPLSRVAMSLGLSTTASAQSIVQYLIDGLKKTPYLPVEIDSNSAPCKQNILRGEDASLAHFPIPQVHQHDGNRYVNTWGVFIVESPDGQWCNWSIQRVQYLNDRQMIALVFPSQHISDIWEEWVKIGKPMPYALVQGCEPIVPYIAGLPLLERNVNEAEYIGALYGKGIEVVKCETHDLRVPASSEVVIEGYFAITREGVEGPFGEFAGYTDMATSLQPILSITAISWQDDPIWPVVAEGKPVDEYHTCTGIGDAAAIQNVLLTANLPVSFVWVPLYSACHLMIVSINRHWRQTHPDLTSEQLTKKVGDVIHQTRMSIKLPRIVVLDDDVDPADTESLLWALATRIHPERKRYFYESAIFPWLNCYSEEERHNRKGKRVIIDALLPENHPPISSFDYAYPDDIKQRVLMHWETDFSHD
B2: I283T-P284D-N285M-E286G-N287T-S322T-N388M-K394R-C430A-L432F-L434W-S436N-G462P-A463P (protein)
chain: B1 chain with A286G
B3: I283T-P284D-N285M-E286H-N287T-S322T-N388M-K394R-C430A-L432F-L434W-S436N-G462P-A463P (protein)
chain: B1 chain with A286H
B4: I283T-P284D-N285M-E286D-N287T-S322T-N388M-K394R-C430A-L432F-L434W-S436N-G462P-A463P (protein)
chain: B1 chain with A286D
B5: I283T-P284D-N285M-N287T-S288T-S322T-N388M-K394R-C430A-L432F-L434W-S436N-G462P-A463P (protein)
chain: B1 chain with A286E, S288T
B6: I283T-P284D-N285M-N287T-L289Q-S322T-N388M-K394R-C430A-L432F-L434W-S436N-G462P-A463P (protein)
chain: B1 chain with A286E, L289Q
B7: N388M-K394R-C430N-L432F-L434W-S436N-H444N (protein)
chain: B1 chain with T283I, D284P, M285N, A286E, T287N, T322S, A430N, H444N, P462G, P463A
B8: I283T-P284D-N285M-N287T-L289R-S322T-N388M-K394R-C430A-L432F-L434W-S436N-G462P-A463P (protein)
chain: B1 chain with A286E, L289R
B9: I283T-P284D-N285M-N287T-L289M-S322T-N388M-K394R-C430A-L432F-L434W-S436N-G462P-A463P (protein)
chain: B1 chain with A286E, L289M
B10: I283T-P284D-N285M-N287T-S322T-N388M-K394R-C430T-L432F-L434W-S436N-G462P-A463P (protein)
chain: B1 chain with A286E, A430T
B11: I283T-P284D-N287P-S322T-H384A-N388M-C430N-L432F-L434W-S436N-dG462 (protein)
chain: B1 chain with M285N, A286E, T287P, H384A, R394K, A430N, P462G, P463A
B12: P25L-I283T-P284D-N287P-S322T-N388M-C430N-L432F-L434W-S436N-dG462 (protein)
chain: B1 chain with P25L, M285N, A286E, T287P, R394K, A430N, P462G, P463A
B13: I283T-P284D-N287P-S322T-N388M-R422G-C430N-L432F-L434W-S436N-dG462 (protein)
chain: B1 chain with M285N, A286E, T287P, R394K, R422G, A430N, P462G, P463A
B14: I283T-P284D-N287P-S322T-P368S-N388M-E421V-C430N-L432F-L434W-S436N-dG462 (protein)
chain: B1 chain with M285N, A286E, T287P, P368S, R394K, E421V, A430N, P462G, P463A
B15: I283T-P284D-N287P-S322T-N388M-R422L-C430N-L432F-L434W-S436N-dG462 (protein)
chain: B1 chain with M285N, A286E, T287P, R394K, R422L, A430N, P462G, P463A
B16: I283T-P284D-N287P-S322T-N388M-C430N-L432F-L434W-S436N-dG462-A463I (protein)
chain: B1 chain with M285N, A286E, T287P, R394K, A430N, P462G, P463I
B17: I283T-P284D-N287P-S322T-N388M-C430N-L432F-L434W-S436N-dG462-A463T (protein)
chain: B1 chain with M285N, A286E, T287P, R394K, A430N, P462G, P463T
B18: N388M-K394R-C430N-L432F-L434W-S436N-H444R (protein)
chain: B1 chain with T283I, D284P, M285N, A286E, T287N, T322S, A430N, H444R, P462G, P463A
B19: I283T-P284D-N287P-S322T-N388M-C430N-L432F-L434W-S436N-dG462-A463F (protein)
chain: B1 chain with M285N, A286E, T287P, R394K, A430N, P462G, P463F
B20: I283T-P284D-N287P-S322T-N388M-C430N-L432F-L434W-S436N-H461V-dG462 (protein)
chain: B1 chain with M285N, A286E, T287P, R394K, A430N, H461V, P462G, P463A
B21: I283T-P284D-N287P-S322T-N388M-C430N-L432F-L434W-S436N-dG462-S465V (protein)
chain: B1 chain with M285N, A286E, T287P, R394K, A430N, P462G, P463A, S465V
B22: I283T-P284D-N287P-S322T-N388M-C430N-L432F-L434W-S436N-H461A-dG462 (protein)
chain: B1 chain with M285N, A286E, T287P, R394K, A430N, H461A, P462G, P463A
B23: I283T-P284D-N287P-S322T-N388M-C430N-L432F-L434W-S436N-H461T-dG462 (protein)
chain: B1 chain with M285N, A286E, T287P, R394K, A430N, H461T, P462G, P463A
B24: I283T-P284D-N287P-S322T-N388M-C430N-L432F-L434W-S436N-H461Y-dG462 (protein)
chain: B1 chain with M285N, A286E, T287P, R394K, A430N, H461Y, P462G, P463A
B25: I283T-P284D-N287P-S322T-N388M-C430N-L432F-L434W-S436N-dG462-A463S (protein)
chain: B1 chain with M285N, A286E, T287P, R394K, A430N, P462G, P463S
B26: I283T-P284D-N287P-S322T-N388M-C430N-L432F-L434W-S436N-H461A-dG462-A463T (protein)
chain: B1 chain with M285N, A286E, T287P, R394K, A430N, H461A, P462G, P463T
B27: I283T-P284D-N287P-S322T-N388M-C430N-L432F-L434W-S436N-H461A-dG462-S465V (protein)
chain: B1 chain with M285N, A286E, T287P, R394K, A430N, H461A, P462G, P463A, S465V
B28: I283T-P284D-N287P-S322T-N388M-C430N-L432F-L434W-S436N-H461A-dG462-S465I (protein)
chain: B1 chain with M285N, A286E, T287P, R394K, A430N, H461A, P462G, P463A, S465I
B29: N388M-K394R-C430N-L432F-L434W-S436N-H444T (protein)
chain: B1 chain with T283I, D284P, M285N, A286E, T287N, T322S, A430N, H444T, P462G, P463A
B30: I283T-P284D-N287P-S322T-N388M-C430N-L432F-L434W-S436N-H461Y-dG462-A463T (protein)
chain: B1 chain with M285N, A286E, T287P, R394K, A430N, H461Y, P462G, P463T
B31: I283T-P284D-N287P-S322T-N388M-C430N-L432F-L434W-S436N-H461Y-dG462-S465V (protein)
chain: B1 chain with M285N, A286E, T287P, R394K, A430N, H461Y, P462G, P463A, S465V
B32: I283T-P284D-N287P-S322T-N388M-C430N-L432F-L434W-S436N-H461V-dG462-A463T (protein)
chain: B1 chain with M285N, A286E, T287P, R394K, A430N, H461V, P462G, P463T
B33: I283T-P284D-N287P-S322T-N388M-C430N-L432F-L434W-S436N-H461V-dG462-S465V (protein)
chain: B1 chain with M285N, A286E, T287P, R394K, A430N, H461V, P462G, P463A, S465V
B34: I283T-P284D-N287P-S322T-N388M-C430N-L432F-L434W-S436N-dG462-A463T-S465V (protein)
chain: B1 chain with M285N, A286E, T287P, R394K, A430N, P462G, P463T, S465V

tested on: 3-methylcrotonic acid; format: biochemical, Yersinia frederiksenii; design: key: “+” representing a low increase in activity; “++++” representing a high increase in activity

| Molecule | Activity relative to WT |
| --- | --- |
| B1 | ++++ |
| B2 | ++++ |
| B3 | ++++ |
| B4 | ++++ |
| B5 | ++++ |
| B6 | ++++ |
| B7 | + |
| B8 | ++++ |
| B9 | ++++ |
| B10 | ++++ |
| B11 | ++++ |
| B12 | ++++ |
| B13 | ++++ |
| B14 | ++++ |
| B15 | ++++ |
| B16 | ++++ |
| B17 | ++++ |

| Molecule | Activity relative to WT |
| --- | --- |
| B18 | + |
| B19 | ++++ |
| B20 | ++++ |
| B21 | ++++ |
| B22 | ++++ |
| B23 | ++++ |
| B24 | ++++ |
| B25 | ++++ |
| B26 | ++++ |
| B27 | ++++ |
| B28 | ++++ |
| B29 | + |
| B30 | ++++ |
| B31 | ++++ |
| B32 | ++++ |
| B33 | ++++ |
| B34 | ++++ |
